This note sets out measurements from patent US20250269048A1 (BIVICTRIX, published 2025).

Changes are numbered by the printed parent chain.

Assay [1] has as its target T1, human CD7 on cells (human, UniProt P09564 26-240).
T1 construct: whole, on cells; Target of the FACS and cell capture values and of the kill assays on CD7 single positive cells; also called CD7+ cells; Jurkat (CD33-/CD7+)
T1 sequence (looked up): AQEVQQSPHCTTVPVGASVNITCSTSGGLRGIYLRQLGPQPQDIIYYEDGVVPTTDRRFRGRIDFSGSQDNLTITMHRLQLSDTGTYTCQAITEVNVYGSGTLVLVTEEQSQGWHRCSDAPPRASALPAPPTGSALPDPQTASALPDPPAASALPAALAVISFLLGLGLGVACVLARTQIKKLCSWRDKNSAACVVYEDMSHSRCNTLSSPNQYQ
Nature of the assay: FACS; reference 7-PP-1 WT. In general terms: Flow cytometry measures light scatter and fluorescence of single cells or particles in a stream.

In assay [2] the target is T1, human CD7 on cells. Nature of the assay: FACS; cells not named.
Assay [3] addresses T2, human CD7 (human, UniProt P09564 26-180, limits assumed).
T2 construct: The construct is not described
T2 sequence (looked up): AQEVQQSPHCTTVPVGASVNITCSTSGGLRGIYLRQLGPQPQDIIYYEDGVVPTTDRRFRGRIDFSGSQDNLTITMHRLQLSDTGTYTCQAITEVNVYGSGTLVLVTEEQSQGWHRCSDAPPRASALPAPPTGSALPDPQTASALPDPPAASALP
The experiment in a line: SPR; reference 7-AA-WT. For orientation: SPR reads the build-up and loss of mass on a sensor chip optically.

The target in assay [4] is T2, human CD7. Nature of the assay: SPR.
For assay [5], the target named is T2, human CD7. Nature of the assay: SPR; reference 7-PP-1 WT.

B1: 7-PP-4 (Fab, V domains shown)
VH: QVQLQESGAELVKPGASVKLSCKASGYTFTSYWMHWVKQRPGQGLEWIGKINPSNGRTNYNEKFKSKATLTVDKSSSTAYMQLSSLTSEDSAVYYCARGGVTYDLYYYALDYWGQGTTVTVSS
VL: DIELTQSPATLSVTPGDSVSLSCRASQSISNNLHWYQQKSHESPRLLIKSASQSISGIPSRFSGSGSGTDFTLSINSVETEDFGMYFCQQSNSWPYTFGGGTKLEIKR
With B1, the “FACS fold reduction compared to PP WT” value in assay [1] amounted to 3740 fold. Besides, the FACS binding in assay [2] was found to be 1990.

B2: CD7-PP-6 binding arm (Fab, V domains shown)
VH: B1 VH with T102Y, D104A
VL: B1 VL
notes: Heavy chain Asp104Ala
What is called Kd is the concentration at which binding is half-saturated. Low values mean higher affinity, high ones lower affinity. Turning to B2, the “Fold Reduction in binding affinity compared to WT (Kd)” value (“Fold Reduction … to WT (Kd)” for short) in assay [3] came to 17.2 fold. The molecule further returned a dissociation constant (Kd) in assay [4] of 45.2 nM. The “Fold Reduction in binding affinity compared to PP WT (Kd)” value (from here on “Fold Reduction … to PP WT (Kd)”) in assay [5] stood at 12.7 fold. Besides, the “FACS fold reduction compared to PP WT” value in assay [1] turned out to be 18.3 fold. In assay [2], the FACS binding was 9.76.

B3: 7-PP-5 (Fab, V domains shown)
VH: B1 VH with T102Y, L105G
VL: B1 VL
As to B3, in assay [1], the “FACS fold reduction compared to PP WT” value was found to be 503 fold. This molecule also yielded an FACS binding in assay [2] of 268.

B4: CD7-PP-8 CD7 binding arm (Fab, V domains shown)
VH: B1 VH with R57K, T102Y, Y108A
VL: B1 VL
For B4, the “Fold Reduction … to WT (Kd)” value in assay [3] was determined as 87.2 fold. Also, the Kd in assay [4] worked out at 229 nM. Also, the “Fold Reduction … to PP WT (Kd)” value in assay [5] was 64.3 fold. Further, in assay [1], the “FACS fold reduction compared to PP WT” value was 182 fold. Besides, in assay [2], the FACS binding is 96.8.

B5: 7-PP-9 (Fab, V domains shown)
VH: B1 VH with Y108A
VL: B1 VL
Turning to B5, the “FACS fold reduction compared to PP WT” value in assay [1] amounted to 517 fold. In assay [2], the FACS binding is 275.

B6: 7-PP-11 (Fab, V domains shown)
VH: B1 VH with T102Y, D104A, Y108A
VL: B1 VL
With B6, the “Fold Reduction … to WT (Kd)” value in assay [3] is 93.7 fold. The dissociation constant Kd in assay [4] is 246 nM. Further, the “Fold Reduction … to PP WT (Kd)” value in assay [5] came to 69.1 fold. Also, the “FACS fold reduction compared to PP WT” value in assay [1] was found to be 105 fold. The same molecule returned an FACS binding in assay [2] of 55.9.

B7: 7-PP-10 (Fab, V domains shown)
VH: B1 VH with T102Y, L105G, Y108A
VL: B1 VL
As for B7, the “FACS fold reduction compared to PP WT” value in assay [1] worked out at 628 fold. Besides, the FACS binding in assay [2] came out at 335.

B8: CD7-PP-7 CD7 binding arm (Fab, V domains shown)
VH: B1 VH with R57G, T102Y, Y108A
VL: B1 VL
notes: Heavy chain Arg57Gly/Tyr108Ala
In the case of B8, the “Fold Reduction … to WT (Kd)” value in assay [3] turned out to be 206 fold. This molecule had a Kd in assay [4] of 541 nM. The “Fold Reduction … to PP WT (Kd)” value in assay [5] turned out to be 152 fold. The “FACS fold reduction compared to PP WT” value in assay [1] is 502 fold. The molecule also showed an FACS binding in assay [2] of 267.

B9: CD7-PP-2 CD7 binding arm (Fab, V domains shown)
VH: B1 VH with R57G, T102Y
VL: B1 VL
notes: Heavy chain Arg57Gly
For the molecule B9, in assay [3], the “Fold Reduction … to WT (Kd)” value is 28.8 fold. The same molecule showed a Kd in assay [4] of 75.7 nM. Also, in assay [5], the “Fold Reduction … to PP WT (Kd)” value was found to be 21.3 fold. Moreover, in assay [1], the “FACS fold reduction compared to PP WT” value came to 64.9 fold. The molecule further came in with an FACS binding in assay [2] of 34.6.

B10: CD7-PP-3 CD7 binding arm (Fab, V domains shown)
VH: B1 VH with R57K, T102Y
VL: B1 VL
notes: Heavy chain Arg57Lys
Regarding B10, the “Fold Reduction … to WT (Kd)” value in assay [3] came out at 12.4 fold. Besides, the dissociation constant Kd in assay [4] amounted to 32.5 nM. Also, in assay [5], the “Fold Reduction … to PP WT (Kd)” value turned out to be 9.13 fold. Besides, in assay [1], the “FACS fold reduction compared to PP WT” value turned out to be 24.5 fold. In assay [2], this molecule yielded an FACS binding of 13.
